Target: full-length recombinant MYC-KEAP1 (human, UniProt Q14145 1-624)
Test: pull-down

Chain of full-length recombinant MYC-KEAP1 (Q14145 whole entry): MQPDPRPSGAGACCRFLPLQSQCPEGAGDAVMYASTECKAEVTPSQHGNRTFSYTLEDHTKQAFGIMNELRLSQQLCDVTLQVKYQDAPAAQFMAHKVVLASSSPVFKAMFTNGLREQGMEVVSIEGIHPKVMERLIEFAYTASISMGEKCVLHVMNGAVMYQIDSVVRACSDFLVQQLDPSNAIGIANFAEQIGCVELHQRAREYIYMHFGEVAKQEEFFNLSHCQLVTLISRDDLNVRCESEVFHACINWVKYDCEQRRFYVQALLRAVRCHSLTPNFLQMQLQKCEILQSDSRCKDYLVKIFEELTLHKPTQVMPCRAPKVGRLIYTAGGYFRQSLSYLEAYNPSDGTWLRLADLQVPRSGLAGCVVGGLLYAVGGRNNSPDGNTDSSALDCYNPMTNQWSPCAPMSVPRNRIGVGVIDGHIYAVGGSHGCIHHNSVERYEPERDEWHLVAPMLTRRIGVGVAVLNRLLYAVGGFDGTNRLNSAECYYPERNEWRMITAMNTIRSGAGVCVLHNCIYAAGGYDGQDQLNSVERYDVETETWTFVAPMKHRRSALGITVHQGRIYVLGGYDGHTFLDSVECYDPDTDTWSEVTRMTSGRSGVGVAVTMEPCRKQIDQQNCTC

B1: full-length recombinant GST-ATDC (natural protein)
chain: MEAADASRSNGSSPEARDARSPSGPSGSLENGTKADGKDAKTTNGHGGEAAEGKSLGSALKPGEGRSALFAGNEWRRPIIQFVESGDDKNSNYFSMDSMEGKRSPYAGLQLGAAKKPPVTFAEKGELRKSIFSESRKPTVSIMEPGETRRNSYPRADTGLFSRSKSGSEEVLCDSCIGNKQKAVKSCLVCQASFCELHLKPHLEGAAFRDHQLLEPIRDFEARKCPVHGKTMELFCQTDQTCICYLCMFQEHKNHSTVTVEEAKAEKETELSLQKEQLQLKIIEIEDEAEKWQKEKDRIKSFTTNEKAILEQNFRDLVRDLEKQKEEVRAALEQREQDAVDQVKVIMDALDERAKVLHEDKQTREQLHSISDSVLFLQEFGALMSNYSLPPPLPTYHVLLEGEGLGQSLGNFKDDLLNVCMRHVEKMCKADLSRNFIERNHMENGGDHRYVNNYTNSFGGEWSAPDTMKRYSMYLTPKGGVRTSYQPSSPGRFTKETTQKNFNNLYGTKGNYTSRVWEYSSSIQNSDNDLPVVQGSSSFSLKGYPSLMRSQSPKAQPQTWKSGKQTMLSHYRPFYVNKGNGIGSNEAP
B1 gave a Kd of 2.87 nM.

Reference: publication PMC7849366 (Genes & Development, 2021)
